Source: patent publication US20220017612A1
Where two headings read alike, the source gives them in different places.

Assays:
[1] = target: fusion protein of a human IgG1 Fc domain and human LAP-TGFβ1 (human) (UniProt P01137); assay: SPR (Biacore T200), antigen-Fc captured, 1:1 model
[2] = target: fusion protein of a human IgG1 Fc domain and human LAP-TGFβ1 (human) (UniProt P01137); assay: SPR (Biacore T200), antigen-Fc captured, 1:1 model; remark: listed apart in the source
[3] = target: fusion protein of a human IgG1 Fc domain and cynomolgus monkey LAP-TGFβ1 (human; cynomolgus monkey); assay: SPR (Biacore T200), antigen-Fc captured, 1:1 model
[4] = target: fusion protein of a human IgG1 Fc domain and rat LAP-TGFβ1 (human; rat) (UniProt P17246); assay: SPR (Biacore T200), antigen-Fc captured, 1:1 model
[5] = target: fusion protein of a human IgG1 Fc domain and mouse LAP-TGFβ1 (human; mouse) (UniProt P04202); assay: SPR (Biacore T200), antigen-Fc captured, 1:1 model
[6] = target: human-chicken LAP-TGFβ1 chimera #2 on HT1080 cells (human/chicken chimera); assay: flow cytometry, transduced HT1080 cells
[7] = target: human-chicken LAP-TGFβ1 chimera #1 on HT1080 cells (human/chicken chimera); assay: flow cytometry, transduced HT1080 cells
Sequence of human-chicken LAP-TGFβ1 chimera #1 on HT1080 cells (human/chicken chimera) (chain, as listed by the source mutant limits assumed): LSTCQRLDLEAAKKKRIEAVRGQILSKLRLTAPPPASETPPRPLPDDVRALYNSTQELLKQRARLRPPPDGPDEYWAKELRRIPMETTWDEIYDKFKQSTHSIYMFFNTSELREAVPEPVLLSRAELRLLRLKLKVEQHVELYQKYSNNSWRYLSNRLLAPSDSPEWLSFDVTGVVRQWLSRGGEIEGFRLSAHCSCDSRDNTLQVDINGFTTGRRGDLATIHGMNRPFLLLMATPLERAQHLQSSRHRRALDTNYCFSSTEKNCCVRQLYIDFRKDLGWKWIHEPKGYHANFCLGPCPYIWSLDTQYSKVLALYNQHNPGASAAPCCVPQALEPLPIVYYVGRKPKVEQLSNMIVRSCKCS

Sequence of fusion protein of a human IgG1 Fc domain and mouse LAP-TGFβ1 (human; mouse) (P04202 30-390 limits assumed): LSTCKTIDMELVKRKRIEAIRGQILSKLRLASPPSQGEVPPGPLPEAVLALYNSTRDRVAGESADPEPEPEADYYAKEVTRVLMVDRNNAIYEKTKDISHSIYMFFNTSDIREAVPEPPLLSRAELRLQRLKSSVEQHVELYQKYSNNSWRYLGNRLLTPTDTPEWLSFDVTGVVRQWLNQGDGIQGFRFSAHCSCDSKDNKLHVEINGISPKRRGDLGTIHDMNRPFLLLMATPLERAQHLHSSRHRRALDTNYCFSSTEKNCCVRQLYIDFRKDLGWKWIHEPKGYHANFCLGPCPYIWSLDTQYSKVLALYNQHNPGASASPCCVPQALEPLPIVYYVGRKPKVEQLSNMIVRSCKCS
Sequence of fusion protein of a human IgG1 Fc domain and human LAP-TGFβ1 (human) (P01137 30-390 limits assumed): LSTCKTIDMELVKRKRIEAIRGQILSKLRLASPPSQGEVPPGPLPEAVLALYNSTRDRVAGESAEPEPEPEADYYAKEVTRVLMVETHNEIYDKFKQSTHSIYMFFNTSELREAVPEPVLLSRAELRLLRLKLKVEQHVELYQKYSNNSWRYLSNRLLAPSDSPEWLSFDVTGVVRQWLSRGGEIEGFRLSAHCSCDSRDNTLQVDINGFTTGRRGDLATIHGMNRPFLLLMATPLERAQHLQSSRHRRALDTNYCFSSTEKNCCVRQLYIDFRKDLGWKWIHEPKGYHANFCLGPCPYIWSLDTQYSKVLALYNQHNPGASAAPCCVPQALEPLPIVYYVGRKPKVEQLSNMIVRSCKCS
Sequence of fusion protein of a human IgG1 Fc domain and rat LAP-TGFβ1 (human; rat) (P17246 30-390 limits assumed): as the sequence (P04202 30-390 limits assumed) above, with E93D, S99T, L131F, S134T, K202V counted along it
Sequence of human-chicken LAP-TGFβ1 chimera #2 on HT1080 cells (human/chicken chimera) (chain, as listed by the source mutant limits assumed): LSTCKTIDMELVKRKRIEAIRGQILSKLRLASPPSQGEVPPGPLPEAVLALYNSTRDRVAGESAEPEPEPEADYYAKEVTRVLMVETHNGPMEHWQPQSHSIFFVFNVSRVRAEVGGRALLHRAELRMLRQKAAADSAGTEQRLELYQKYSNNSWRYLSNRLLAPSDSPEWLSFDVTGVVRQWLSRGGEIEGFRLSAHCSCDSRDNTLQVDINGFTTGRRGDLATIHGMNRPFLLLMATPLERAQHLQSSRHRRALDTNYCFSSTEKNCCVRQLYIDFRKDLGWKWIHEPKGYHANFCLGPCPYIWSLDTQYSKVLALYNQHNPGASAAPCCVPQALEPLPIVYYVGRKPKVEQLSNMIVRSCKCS

Row | Binder | Kd [1] [nM] | koff [1] [s⁻¹] | kon [1] [M⁻¹ s⁻¹] | Kd [2] [nM] | koff [2] [s⁻¹] | kon [2] [M⁻¹ s⁻¹] | Kd [3] [nM] | koff [3] [s⁻¹] | kon [3] [M⁻¹ s⁻¹] | Kd [4] [nM] | koff [4] [s⁻¹] | kon [4] [M⁻¹ s⁻¹] | Kd [5] [nM] | koff [5] [s⁻¹] | kon [5] [M⁻¹ s⁻¹] | % GFP+/APC+ cells [6] [%] | % GFP+/APC+ cells [7] [%]
1 | humanized 20E6 F(ab′) binding protein (Fab, V domains shown) VH: EVQLVQSGAEVKKPGASVKVSCKASGYTFTSYWMHWVRQAPGQGLEWMGRIDPQSGGIKYAQKFQGRATLTVDTSTSTAYMELSRLRSDDTAVYYCARWDYGGYFDVWGQGTLVTVSS VL: DIQMTQSPSSLSASVGDRVTITCRASQDITNYLNWYQQKPGKAVKLLIYYTSRLHSGVPSRFSGSGSGTDYTLTISSLQPEDFATYFCQQGDTLPWTFGQGTKLEIKR | 40.8 | 0.08 | 1.96e+06 | 49.5 | 0.0939 | 1.91e+06 | 60.3 | 0.095 | 1.58e+06 | 59.4 | 0.106 | 1.79e+06 | 48.3 | 0.079 | 1.64e+06 |  | 
2 | 28G11_(hyb) (antibody, mouse IgG2b, kappa, V domains shown) VH: EVKLVESGGGLVQPGGSLSLSCAASGFTFTDYYMSWVRQPPGKALEWLGFIRNKPNGYTTEYSASVKGRFTISRDNSQSILYLQMNVLRAEDSATYYCARYTGGGYFDYWGQGTTLTVSS VL: DIQMTQTTSSLSASLGDRLTISCRASQDISNYLNWYQQKPDGTVKLLIYYTSRLHSGVPSRFSGSGSGTDYSLTISNLEQADIATYFCQQGDTLPWTFGGGTKLEIKR |  |  |  |  |  |  |  |  |  |  |  |  |  |  |  | 0.2 | 0.2
